Source: paper PMC13388985 (Nature Communications, 2026)
No end group written: not given here.

T1: GST-tagged wild-type Af1521 macrodomain (UniProt O28751 1-192)
T1 sequence: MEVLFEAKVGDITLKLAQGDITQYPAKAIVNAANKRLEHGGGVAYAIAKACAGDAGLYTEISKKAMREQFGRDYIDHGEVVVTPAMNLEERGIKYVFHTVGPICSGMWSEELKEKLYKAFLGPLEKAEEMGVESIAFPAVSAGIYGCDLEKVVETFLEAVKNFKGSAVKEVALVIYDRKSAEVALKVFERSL

T2: GST-tagged Af1521-K35E/Y145R macrodomain (UniProt O28751 1-192, K35E | Y145R)
T2 sequence: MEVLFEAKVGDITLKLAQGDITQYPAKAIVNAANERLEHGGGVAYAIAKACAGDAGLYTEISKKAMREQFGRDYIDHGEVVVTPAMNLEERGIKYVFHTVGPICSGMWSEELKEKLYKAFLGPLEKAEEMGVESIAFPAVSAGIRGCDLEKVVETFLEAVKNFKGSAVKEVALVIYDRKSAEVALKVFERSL


How the values were obtained:
[1] = biological target: T1, GST-tagged wild-type Af1521 macrodomain; test: pull-down
[2] = biological target: T2, GST-tagged Af1521-K35E/Y145R macrodomain; test: pull-down

Binder | binding result [1] | binding result [2]
GWTAR(ADP‑ribose)KSAEAGTAGK-NH2 [Synthetic peptide GWTARKSAEAGTAGK-amide with ADPr on Arg-5] | binds | binds
GWTARKS(ADP‑ribose)AAAGTAGK-NH2 [Synthetic peptide GWTARKSAAAGTAGK-amide with ADPr on Ser-7] | binds | binds
